Biological target: T1, Human-pIgR-ECD-his抗原重组蛋白 (human, UniProt P01833 19-638)
T1 construct: extracellular domain; Recombinant antigen coated on the ELISA plate (200 ng/well); also called PI蛋白; not shown: his tag
Test: ELISA, antigen coated, anti-human IgG Fc HRP

T1 sequence (P01833 19-638): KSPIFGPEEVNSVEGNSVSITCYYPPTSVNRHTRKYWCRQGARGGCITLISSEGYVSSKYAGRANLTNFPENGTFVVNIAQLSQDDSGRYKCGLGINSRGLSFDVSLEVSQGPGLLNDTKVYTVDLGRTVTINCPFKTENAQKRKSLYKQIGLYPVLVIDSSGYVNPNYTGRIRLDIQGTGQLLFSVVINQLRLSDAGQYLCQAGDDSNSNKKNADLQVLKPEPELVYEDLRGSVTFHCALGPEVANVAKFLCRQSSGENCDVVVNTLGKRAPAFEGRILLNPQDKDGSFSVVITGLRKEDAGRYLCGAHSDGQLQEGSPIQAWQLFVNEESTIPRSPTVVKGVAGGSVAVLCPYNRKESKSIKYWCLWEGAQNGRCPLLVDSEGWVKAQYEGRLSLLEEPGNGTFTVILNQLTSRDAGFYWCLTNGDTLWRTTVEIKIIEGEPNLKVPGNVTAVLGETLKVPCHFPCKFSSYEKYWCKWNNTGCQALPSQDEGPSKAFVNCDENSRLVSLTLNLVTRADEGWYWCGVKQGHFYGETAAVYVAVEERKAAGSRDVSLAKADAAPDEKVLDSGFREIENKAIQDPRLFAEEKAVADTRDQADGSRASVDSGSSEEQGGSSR

Row | binding result | Binder
1 | binds | PI-19-hFc (Fc fusion, VHH inserted into the pFCIG-hIgG1 plasmid, expressed in HEK293F; also called 单克隆PI-19-hFc; not shown: human IgG1 Fc fragment (hFC) from the bought expression plasmid pFCIG-hIgG1) EVQLVESGGGSVQAGGSLRLSCAASGITISNNCMGWFRQAPGKEREGVALLYSTSSTSSQKSHADSVKGRFTISRDNAKNTVYLQMNSLKPEDSAMYYCAAKSGVCRWNWEYGMDYWDWGKGTLVTISS
2 | binds | PI-21-hFc (Fc fusion, VHH inserted into the pFCIG-hIgG1 plasmid, expressed in HEK293F; also called 单克隆PI-21-hFc; not shown: human IgG1 Fc fragment (hFC) from the bought expression plasmid pFCIG-hIgG1) QVKLVQSGGGLVQPGGSLRLSCAASGFTFENYAMGWLRQAPGEGLEWVSSINYNGDVTAYTTSVKGRFTVSRDNAKNTLYLQLNDLKIDDTAMYYCAKGRYGWALSREDYNTRGQGTQVTVSS
3 | binds | PI-28-hFc (Fc fusion, VHH inserted into the pFCIG-hIgG1 plasmid, expressed in HEK293F; also called 单克隆PI-28-hFc; not shown: human IgG1 Fc fragment (hFC) from the bought expression plasmid pFCIG-hIgG1) EVKLVESGGGSVQAGGSLRLSCAASGYTYSSACMGWFRQAPGKERDWVALIDGIGSTTYTDSVKGRFTISQDNAKNTLYLQMNSLKPEDTATYYCAADLLSGGYCHPVGGGARDWGGPVVADFTYWGQGTQVTVSS
4 | binds | PI-74-hFc (Fc fusion, VHH inserted into the pFCIG-hIgG1 plasmid, expressed in HEK293F; also called 单克隆PI-74-hFc; not shown: human IgG1 Fc fragment (hFC) from the bought expression plasmid pFCIG-hIgG1) EVKLVESGGGSVQAGGSLRLSCTASGPTYGRTCMGWFRQAPGREREGVATIETKGLTRYTYYADSVKGRFTISQDDAKNTLYLQMNSLKPEDTAMYYCAADGPGCSGGAFIARGRWYPHWGQGTQVTVSS
